B1: Q8CIV3 (protein, UniProt Q8CIV3 1-451, looked up)
chain: MLRLCFFISFMCLVKSDTDETCPSFTRLSFHSAVVGTGLSVRLMLYTQRDQTCAQIINSTALGSLNVTKKTTFIIHGFRPTGSPPVWIEELVQSLISVQEMNVVVVDWNRGATTVIYPHASSKTRQVASILKEFIDQMLVKGASLDNIYMIGVSLGAHIAGFVGESYEGKLGRVTGLDPAGPLFNGRPPEERLDPSDALFVDVIHSDTDALGYKEALGHIDFYPNGGLDQPGCPKTIFGGIKYFKCDHQMSVYLYLASLQNNCSITAYPCDSYRDYRNGKCVSCGAGQIVPCPRVGYYADSWKEYLWDRDPPMTKAFFDTAETKPYCMYHYFVDIVSWNKSVRRGFITIKLRGEDGNITESKIDHEPSAFEKYHQVSLLARFNRDLDKVAEISLLFSTGSVVGPKYKLRVLQMKLRSLAHPDRPHLCRYDLVLMENVETSFQPILCSQQQM
modifications: full-length
B2: Q8CGK7 (protein, UniProt Q8CGK7 1-381, looked up)
chain: MGCLGNSSKTAEDQGVDEKERREANKKIEKQLQKERLAYKATHRLLLLGAGESGKSTIVKQMRILHVNGFNPEEKKQKILDIRKNVKDAIVTIVSAMSTIIPPVPLANPENQFRSDYIKSIAPITDFEYSQEFFDHVKKLWDDEGVKACFERSNEYQLIDCAQYFLERIDSVSLVDYTPTDQDLLRCRVLTSGIFETRFQVDKVNFHMFDVGGQRDERRKWIQCFNDVTAIIYVAACSSYNMVIREDNNTNRLRESLDLFESIWNNRWLRTISIILFLNKQDMLAEKVLAGKSKIEDYFPEYANYTVPEDATPDAGEDPKVTRAKFFIRDLFLRISTATGDGKHYCYPHFTCAVDTENIRRVFNDCRDIIQRMHLKQYELL
modifications: full-length
B3: Q8C5N3 (protein, UniProt Q8C5N3 1-908, looked up)
chain: MKSSVAHMKSSGHNRRETHSSYRRSSSPEDRYTEQERSPRDRGYSDYSRSDYERSRRGYSYDDSMESRSRDREKRRERERDADHRKRSRKSPSPDRSPARGGGQSSPQEEPTWKKKKDELDPLLTRTGGAYIPPAKLRMMQEQITDKSSLAYQRMSWEALKKSINGLINKVNISNISIIIQELLQENIVRGRGLLSRSVLQAQSASPIFTHVYAALVAIINSKFPQIGELILKRLILNFRKGYRRNDKQLCLTASKFVAHLINQNVAHEVLCLEMLTLLLERPTDDSVEVAIGFLKECGLKLTQVSPRGINAIFERLRNILHESEIDKRVQYMIEVMFAVRKDGFKDHPVILEGLDLVEEDDQFTHMLPLEDDYNPEDVLNVFKMDPNFMENEEKYKAIKKEILDEGDSDSNTDQGAGSSEDEEEEDEEEEGEDEEGGQKVTIHDKTEINLVSFRRTIYLAIQSSLDFEECAHKLLKMEFAESQTKELCNMILDCCAQQRTYEKFFGLLAGRFCMLKKEYMESFESIFKEQYDTIHRLETNKLRNVAKMFAHLLYTDSLPWSVLECIKLSEETTTSSSRIFVKIFFQELCEYMGLPKLNARLKDETLQPFFEGLLPRDNPRNTRFAINFFTSIGLGGLTDELREHLKNTPKVIVAQKPEAEQKKPALTSSSSESSSASDSSDSESDSSESSSESSSDASDSSSSSSTQSSTSGITAHSAKGTRKKRQGKARGEEVDKLARGHQALERRREGGREDQRHQEGRTERARSERRRAQNSRDADWRDPLAKHIDDRSHENSHSRVGNGREQGSHREPEDRHGEPKKRRERRDSFSENEKQRSRNQDSDNVRRKDRSKSRERSRRHSGHKGDDARCQNSAERRWEKPGRRPEQSRESKRSQDRRREKSPTTQK
modifications: full-length
B4: Q8C2E4 (protein, UniProt Q8C2E4 1-695, looked up)
chain: MDLLRLSRLFSGPRPIGLSVLQHLDLVGSTRWTGGREGPARLRAAFCGSSSPLPLGSGNQKEMSSLCSDSSKLSTVAPQEEAEEESFGSLSGKFSSRRIFHKSTAQLYNLQLKEQGGEEEELEPRPWRGRRNTQYWYFFQCKRLIKEGKLAEALDLFERQMLKEERLQPLECNYTVLIGGCGRVGYLKKAFRLFNDMKKRDLEPSDATYTALFNVCAESPWKDSALQSALKLRQQLQARNFQLNLKTYHALLKVAAKCADLRLCLDVFKEIIQRGHAVTEETFCFLLVGCIQDKKTGFRQAMQVWRQMLSLGIKPSRHGYNLLLEAARDCGLGDPEVASRLLLTSQEETILLPPPKGRHMAGRKVQAKTVHGVSLRHVEALERQLFLEPSQKLEGPPALPEARVTSRTQPEVETTAEPGHTVALTPLASKPTHLELEVSLLSLGTLSPAVVSFGTVATPADRLALMGGLEGFLGKMTEHGLQPDIKTLTLLAEVVEPGSTAESSLLSVLDRHRVEADVTFFNTLIRKKSKLGDLEGAKALLPILAKKGIVPNLRTFCNLAIGCHRPRDGMQLLADMKKSQVSPNIHIYSTLINAALKKLDYTYLISILKDMRQNSVPVNEVVVRQLEFAAEYPPTFDRYKGKNTYLEKIDGFRAYYKQWLKAMPAEEAPHPWQEFQNKPVGDQDTTDKAGGLRDG
modifications: full-length
B5: Q8C196 (protein, UniProt Q8C196 1-1500, looked up)
chain: MTRILTACKVVKTLKSGFGFANVTTKRQWDFSRPGIRLLSVKAKTAHIVLEDGTKMKGYSFGHPSSVAGEVVFNTGLGGYPEALTDPAYKGQILTMANPIIGNGGAPDTTARDELGLNKYMESDGIKVAGLLVLNYSNDYNHWLATKSLGQWLQEEKVPAIYGVDTRMLTKIIRDKGTMLGKIEFEGQSVDFVDPNKQNLIAEVSTKDVKVFGKGNPTKVVAVDCGIKNNVIRLLVKRGAEVHLVPWNHDFTQMEYDGLLIAGGPGNPALAQPLIQNVKKILESDRKEPLFGISTGNIITGLAAGAKSYKMSMANRGQNQPVLNITNRQAFITAQNHGYALDNTLPAGWKPLFVNVNDQTNEGIMHESKPFFAVQFHPEVSPGPTDTEYLFDSFFSLIKKGKGTTITSVLPKPALVASRVEVSKVLILGSGGLSIGQAGEFDYSGSQAVKAMKEENVKTVLMNPNIASVQTNEVGLKQADAVYFLPITPQFVTEVIKAERPDGLILGMGGQTALNCGVELFKRGVLKEYGVKVLGTSVESIMATEDRQLFSDKLNEINEKIAPSFAVESMEDALKAADTIGYPVMIRSAYALGGLGSGICPNKETLIDLGTKAFAMTNQILVERSVTGWKEIEYEVVRDADDNCVTVCNMENVDAMGVHTGDSVVVAPAQTLSNAEFQMLRRTSVNVVRHLGIVGECNIQFALHPTSMEYCIIEVNARLSRSSALASKATGYPLAFIAAKIALGIPLPEIKNVVSGKTSACFEPSLDYMVTKIPRWDLDRFHGTSSRIGSSMKSVGEVMAIGRTFEESFQKALRMCHPSVDGFTPRLPMNKEWPANLDLKKELSEPSSTRIYAIAKALENNMSLDEIVRLTSIDKWFLYKMRDILNMDKTLKGLNSDSVTEETLRKAKEIGFSDKQISKCLGLTEAQTRELRLKKNIHPWVKQIDTLAAEYPSVTNYLYVTYNGQEHDIKFDEHGIMVLGCGPYHIGSSVEFDWCAVSSIRTLRQLGKKTVVVNCNPETVSTDFDECDKLYFEELSLERILDIYHQEACNGCIISVGGQIPNNLAVPLYKNGVKIMGTSPLQIDRAEDRSIFSAVLDELKVAQAPWKAVNTLNEALEFANSVGYPCLLRPSYVLSGSAMNVVFSEDEMKRFLEEATRVSQEHPVVLTKFVEGAREVEMDAVGKEGRVISHAISEHVEDAGVHSGDATLMLPTQTISQGAIEKVKDATRKIAKAFAISGPFNVQFLVKGNDVLVIECNLRASRSFPFVSKTLGVDFIDVATKVMIGESIDEKRLPTLEQPIIPSDYVAIKAPMFSWPRLRDADPILRCEMASTGEVACFGEGIHTAFLKAMLSTGFKIPQKGILIGIQQSFRPRFLGVAEQLHNEGFKLFATEATSDWLNANNVPATPVAWPSQEGQNPSLSSIRKLIRDGSIDLVINLPNNNTKFVHDNYVIRRTAVDSGIALLTNFQVTKLFAEAVQKSRTVDSKSLFHYRQYSAGKAA
modifications: full-length
B6: Q8CFC7 (protein, UniProt Q8CFC7 1-668, looked up)
chain: MWHEARKHERKLRGMMVDYKKRAERRREYYEKIKKDPAQFLQVHGRACKVHLDSAVALAAESPVNMMPWQGDTNNMIDRFDVRAHLDHIPDYTPPLLTTISPEQESDERKCNYERYRGLVQNDFAGISEEQCLYQIYIDELYGGLQRPSEDEKKKLAEKKASIGYTYEDSTVAEVEKVAEKPEEEESPAEEESNSDEDEVIPDIDVEVDVDELNQEQVADLNKQATTYGMADGDFVRMLRKDKEEAEAIKHAKALEEEKAMYSGRRSRRQRREFREKRLRGRKISPPSYARRDSPTYDPYKRSPSESSSESRSRSRSPSPGREEKITFITSFGGSDEEAAAAAAAAAASGAAPGKPPAPPQTGGPAPGRNASTRRRSSSSSASRTSSSRSSSRSSSRSRRGYYRSGRHARSRSRSWSRSRSRSRRYSRSRSRGRRHSDGGSRDGHRYSRSPARRGGYVPRRRSRSRSRSGDRYKRGARGPRHHSSSHSRSSWSLSPSRSRSVTRSGSRSQSRSRSRSQSHSQSQSHSPSPPREKLTRPAASPAVGEKLKKTEPAAGKETGAAKPKLTPQERLKLRMQKALNRQFKADKKAAQEKMIQQEHERQEREDELRAMARKIRMKERERREKEREEWERQYSRQSRSPSPRYSREYSSSRRRSRSRSRSPHYRH
modifications: full-length
B7: Q8CAB8 (protein, UniProt Q8CAB8 1-329, looked up)
chain: MELHILEHRLQVASVAKESIPLFTYGLIKLAFLSSKTRCKFFSLTETPEDYTIIVDEEGFLELPSSEHLSVADATWLALNVVSGGGSFSSSQPIGVTKIAKSVIAPLADQNISVFMLSTYQTDFILVRERDLPFVTHTLSSEFTILRVVNGETVAAENLSFTNGFVKPKMVQRPVIHPLSSPSNRFCVTSLDPDTLPAVATLLMDVMFYSNGVKDPMAASDDCGHIRFFSFSLIEGYISLVMDVQTQQRFPSHLLFTSASGELWKMVRIGGQPLGFDECGIVAQISEPLAAADIPAYYISTFKFDHALVPEENISGVIHALKVSQAGKH
modifications: full-length

System: intracellular proteome of ENR+CD and ENR organoids
Assay: LC-MS/MS TMT proteomics of ENR+CD versus ENR organoids
Type: cell-based, C57BL/6 mice
Conditions: for Average logFC: ENR+CD versus ENR organoids, sample pairs in aggregate (n=4, 2 technical replicates from two biological donors); for M1-1 Log2 Median Normalized / M1-2 Log2 Median Normalized / M2-1 Log2 Median Normalized / M2-2 Log2 Median Normalized: protein abundance ratio ENR+CD versus ENR organoids, LC-MS/MS TMT proteomics; for M1-1 Log2 Median Normalized: sample pair M1-1; for M1-2 Log2 Median Normalized: sample pair M1-2; for M2-1 Log2 Median Normalized: sample pair M2-1; for M2-2 Log2 Median Normalized: sample pair M2-2; for change: up = enriched in ENR+CD, down = enriched in ENR, FDR<0.05 and log fold change cut-off

Molecule	Average logFC	M1-1 Log2 Median Normalized	M1-2 Log2 Median Normalized	M2-1 Log2 Median Normalized	M2-2 Log2 Median Normalized	change
B1	1.179	1.6	0.988	0.9025	1.225	up
B2	−1.357	−1.028	−1.1	−1.4805	−1.82	down
B3	−1.281	−1.581	−0.922	−0.9735	−1.648	down
B4	−1.79	−1.411	−1.637	−1.8825	−2.231	down
B5	−1.21	−1.302	−0.76	−1.9525	−0.825	down
B6	−1.139	−1.219	−0.633	−0.8625	−1.84	down
B7	1.494	1.555	0.678	1.5715	1.494	up
